B1: [Gd/DOTA-NH—(CH2CH2O)3—CH2—C(═O)—NH—CH2-(1,3-Ph)-C(═O)-Met-Gly-Lys*-Z2(#N)]p-Fab^2 (conjugate)
heavy: EVQLVESGGGLVQPGGSLRLSCAASGFNIRDTYMHWVRQAPGKGLEWVARIDPANGNSRYVPKFQGRFTISADTSRNTAYLQMNSLRAEDTAVYYCAPFGYYVSDYAMAYWGQGTLVTVSSASTKGPSVFPLAPSSKSTSGGTAALGCLVKDYFPEPVTVSWNSGALTSGVHTFPAVLQSSGLYSLSSVVTVPSSSLGTQTYICNVNHKPSNTKVDKKVEPKSCD
light: DIQLTQSPSSLSASVGDRVTITCRAGESVDIFGVGFLHWYQQKPGKAPKLLIYRASNLESGIPSRFSGSGSRTDFTLTISSLQPEDFATYYCQQTNEDPYTFGQGTKVEIKRTVAAPSVFIFPPSDEQLKSGTASVVCLLNNFYPREAKVQWKVDNALQSGNSQESVTEQDSKDSTYSLSSTLTLSKADYEKHKVYACEVTHQGLSSPVTKSFNRGEC
B2: [Gd/DOTA-NH—CH2-(1,3-Ph)-C(═O)-Met-Gly-Lys*-Z2(#N)]p-Fab^2 (conjugate)
heavy: B1 heavy
light: B1 light
B3: [Gd/DOTA-NH—(CH2CH2O)3—CH2—C(═O)—NH—CH2-(1,3-Ph)-C(═O)-Met-Gly-Lys*-Z2(#S)]p-Fab^2 (conjugate)
heavy: B1 heavy
light: B1 light
B4: [Gd/DOTA-NH—CH2-(1,3-Ph)-C(═O)-Asp-Gly-Lys*-Z2(#N)]p-Fab^2 (conjugate)
heavy: B1 heavy
light: B1 light
B5: [Gd/DOTA-NH—CH2-(1,3-Ph)-C(═O)-Met-Gly-Lys*-Z2(#S)]p-Fab^2 (conjugate)
heavy: B1 heavy
light: B1 light
B6: [Gd/DOTA-NH—(CH2CH2O)3—CH2—C(═O)—NH—CH2-(1,3-Ph)-C(═O)-Gly-Lys*-Z2(#N)]p-Fab^2 (conjugate)
heavy: B1 heavy
light: B1 light
B7: [Gd/DOTA-NH-CH2-(1,4-Ph)-NH-C(═O)-Met-Ile-NH-(CH2)2-Z1(#N)]p-Fab^5 (Fab, V domains shown)
VH: QVQLVQSGAEVKKPGASVKVSCKASGYTFTNYGLSWVRQAPGQGLEWMGENHPGSGIIYHNEKFRGRVTLTADRSTSTAYMELSSLRSEDTAVYYCARSSGTRGFDYWGQGTLVTVSS
VL: DVVMTQTPLSLSVTPGQPASISCRSSQSIVHSNGNTYLEWYLQKPGQSPQLLIYRVSNRFSGVPDRFSGSGSGTDFTLKISRVEAEDVGVYYCFQGSHGPWTFGQGTKLEIKR
modifications: labeling may sit on this chain; sites not stated; labeling portion (MW 1074) on amino groups of the Fab, sites and chain not stated; 1-2 per Fab by MS; Gln 1 pyroglutamic acid as Fab^5 is defined in paragraph 370
B8: Ex-No 105, conjugate of Fab^5 (structure given only as drawing CHEM-US-00163) (Fab, V domains shown)
VH: B7 VH
VL: B7 VL
modifications: labeling may sit on this chain; sites not stated; low molecular weight molecule (MW 1190) bound to the Fab, sites and chain not stated; 1-3 per Fab by MS; Gln 1 pyroglutamic acid as Fab^5 is defined in paragraph 370
B9: [Gd/DOTA-NH-CH2-(1,4-Ph)-NH-C(═O)-Met-Ile-NH-(CH2)2-Z1(#S)]p-Fab^5 (Fab, V domains shown)
VH: B7 VH
VL: B7 VL
modifications: labeling may sit on this chain; sites not stated; labeling portion (MW 1175) bound via 2-iminothiolane-treated amino groups of the Fab, sites and chain not stated; 1-3 per Fab by MS; Gln 1 pyroglutamic acid as Fab^5 is defined in paragraph 370
B10: Ex-No 110, conjugate of Fab^5 (structure given only as drawing CHEM-US-00167) (Fab, V domains shown)
VH: B7 VH
VL: B7 VL
modifications: labeling may sit on this chain; sites not stated; low molecular weight molecule (MW 1201) bound to the Fab, sites and chain not stated; 1-2 per Fab by MS; Gln 1 pyroglutamic acid as Fab^5 is defined in paragraph 370
B11: Ex-No 106, conjugate of Fab^5 (structure given only as drawing CHEM-US-00164) (Fab, V domains shown)
VH: B7 VH
VL: B7 VL
modifications: labeling may sit on this chain; sites not stated; low molecular weight molecule (MW 1380) bound to the Fab, sites and chain not stated; 1-3 per Fab by MS; Gln 1 pyroglutamic acid as Fab^5 is defined in paragraph 370
B12: Ex-No 111, conjugate of Fab^5 (structure given only as drawing CHEM-US-00168) (Fab, V domains shown)
VH: B7 VH
VL: B7 VL
modifications: labeling may sit on this chain; sites not stated; low molecular weight molecule (MW 1391) bound to the Fab, sites and chain not stated; 1-2 per Fab by MS; Gln 1 pyroglutamic acid as Fab^5 is defined in paragraph 370

Assays:
[1] = parameters: species or system mice (BALB/c nu/nu); conditions: mouse, in vivo
Procedure: A Gd-labeled conjugate of the conjugate containing a peptide linker produced in one of the above Examples was administered from the tail vein of tumor-bearing mice so that the protein mass was 0.02 mg (100 μL) per animal. As the tumor-bearing mice used in the present Example, mice (BALB/c nu/nu) that were in a tumor-bearing state brought about by transplanting human colorectal cancer cell line LS174T cells (ATCC(registered trademark); CL-188) at 2.0 to 5.0×10^6 cells/mouse subcutaneously on the back before administration of the sample were used. 24 hours after administration of the sample, the mice were sacrificed, the kidneys and the tumor were removed, and the amounts of Gd in the kidneys and in the tumor were measured using ICP-MS. The present test was carried out in 3 cases in each group, and the mean value of the 3 cases was calculated. The amount of Gd contained per kidney after administration was shown as a percentage of the amount of Gd administered (% of dose/tissue), and the amount of Gd contained per g of tumor tissue was shown as a percentage of the total amount of Gd administered (% of dose/g).

[2] = mouse, in vivo
Procedure: A Gd-labeled conjugate of the conjugate containing a peptide linker produced in one of the above Examples was administered from the tail vein of mice (BALB/c or BALB/c nu/nu) so that the protein mass was 0.02 mg (100 μL) per animal. After about 24 hours, the mice were sacrificed and the kidneys were removed, and the amount of Gd in the kidneys was measured using ICP-MS. The present test was carried out in 3 cases in each group, the mean value of the 3 cases was calculated, and the amount of Gd contained per kidney after administration was shown as a percentage (% of dose/tissue) of the total amount of Gd administered.
Based on the percentage of the control conjugate (% of dose/tissue), the proportion of decrease in the amount of Gd contained in the kidneys of each of the conjugates having a peptide linker was determined and shown in Table 28.

[3] = target: human cancer-specific MUC1 peptide (PTL 1) (human); test: ELISA on immobilised human cancer-specific MUC1 peptide, 4-parameter fit, duplicate (Example 6-2)
Throughout, for Renal residual amount (tumor-bearing mice) % of dose/tissue: time not given here.

Molecule	Renal residual amount (tumor-bearing mice) % of dose/tissue [1]	Renal residual amount (tumor-bearing mice) Proportion of decrease [1] [%]	% of dose/tissue (amount of Gd contained per kidney) [2]	Proportion of decrease (amount of Gd contained in the kidneys) [2] [%]	EC50 [3] [nM]
B1	8.40 % of dose/tissue	67.48	6.8 % of dose/tissue	78.0	–
B2	–	–	15.4 % of dose/tissue	50.3	–
B3	9.40 % of dose/tissue	63.61	7.0 % of dose/tissue	77.4	–
B4	–	–	14.8 % of dose/tissue	52.2	–
B5	12.33 % of dose/tissue	52.26	12.9 % of dose/tissue	58.3	–
B6	–	–	17.1 % of dose/tissue	44.8	–
B7	–	–	–	–	0.08
B8	–	–	–	–	0.11
B9	–	–	–	–	0.09
B10	–	–	–	–	0.19
B11	–	–	–	–	0.1
B12	–	–	–	–	0.16
